This data set in a line: soluble on expression in E. coli; label from the status in PepcDB or PDB records.
In the case of “MSLRVLKFGGTSVANAERFLRVADILESNARQGQVATVLSAPAKITNHLVAMIEKTISGQDALPNISDAERIFAELLTGLAAAQPGFPLAQLKTFVDQEFAQIKHVLHGISLLGQCPDSINAALICRGEKMSIAIMAGVLEARGHNVTVIDPVEKLLAVGHYLESTVDIAESTRRIAASRIPADHMVLMAGFTAGNEKGELVVLGRNGSDYSAAVLAACLRADCCEIWTDVDGVYTCDPRQVPDARLLKSMSYQEAMELSYFGAKVLHPRTITPIAQFQIPCLIKNTGNPQAPGTLIGASRDEDELPVKGISNLNNMAMFSVSGPGMKGMVGMAARVFAAMSRARISVVLITQSSSEYSISFCVPQSDCVRAERAMQEEFYLELKEGLLEPLAVTERLAIISVVGDGMRTLRGISAKFFAALARANINIVAIAQGSSERSISVVVNNDDATTGVRVTHQMLFNTDQVIEVFVIGVGGVGGALLEQLKRQQSWLKNKHIDLRVCGVANSKALLTNVHGLNLENWQEELAQAKEPFNLGRLIRLVKEYHLLNPVIVDCTSSQAVADQYADFLREGFHVVTPNKKANTSSMDYYHLLRHAAEKSRRKFLYDTNVGAGLPVIENLQNLLNAGDELMKFSGILSGSLSYIFGKLDEGMSFSEATTLAREMGYTEPDPRDDLSGMDVARKLLILARETGRELELADIEIEPVLPAEFNAEGDVAAFMANLSQLDDLFAARVAKARDEGKVLRYVGNIDEDGVCRVKIAEVDGNDPLFKVKNGENALAFYSHYYQPLPLVLRGYGAGNDVTAAGVFADLLRTLSWKLGVEGHHHHHH”, the “soluble on expression in E. coli” value is given as “soluble”.
The same measure for “MRYTILTKGDSKSNALKHKMINHMKDFQMVEDSENPEIVISVGGDGTLLQAFHQYSHMLSKVAFVGIHTGHLGFYADWLPHEVEKLIIEINNSEFQVIEYPLLELIVRYNDNGYETRYLALNEATMKTENGSTLVVDVNIRGKHFERFRGDGLCISTPSGSTAYNKALGGALIHPSLEAMQIAEIASINNRVFRTVGSPLVLPKHHTCLITPVNHDTIRTTIDHVSIKHKNVNAIQYRVANEKVRFARFRPFPFWKRVHDSFISSDDERMAGDPLEHHHHHH”: “soluble”; for “MGTFATTYEKIQDFNWLTRFLHAGRYRKLLEVLETVQKDVGNRKVRILDIGCGPGTAVGHILERFDVEYVGIDYDPIFIDAARNRYGKNENCRFIVGDATDERLYETIQADIVIALETLEHIHLNRTVRVIEHVCTIIRPRIFLVTVPVEVGPAVWIKNWGSALMGYNRQSGNLKETFWAGLYRMDRVPAHHTSHQGFDWRCLAQLIRVNAPLREIRSLPFSFVPRLLSPNVALIAEPVKSTIDLANDDPEAWKINHGQTAFQRPHIVDETDAARHAKSLATWSMRLKGLLGMALATMPFAWHRWSYISISPGEAQSSHFLLTIDKHLLPPHQSIEGDTILLAAQAIVQRVSDASYLLT”: “not soluble”.
With “MSLSLVSQYIDLTEHFQNLIAVILKNPEKVWQMQLNYLEDALSLAQAQFNYWLEGKPLPINDQRFNGEDWINNPFFNLLSQHYLLANEHMNSLLENMEYGDENLAKRVRFFTRQYLDALSPANFIHTNPQLMAETLQSHGKNLLRGLHNLLSDVEAGSSRLIIKMTDTEAFKIGENLATTPGKVIFRNSMMELIQYCPRTTKAKSIPLLIVPPWINKYYILDLSPHNSLIRWLVEQGITVFIISWVNPDETYANKSFYDYLNEGPREAISVIQKQLRVKQVNTLGFCIGGTLLASLLAYNKATKDLSIRSATFLAAMIDFSDPGDIAVFIDEQQINKLEEEMKSKGYLAGKFMASSFNSLRANDLIWSFFIKNYLRGKSPVPFDILYWNADSTNMPATMHSQYLRWMYLHNNLIKPGKIRLNHIPVDVTNIDIPTFFLSTQKDHIAPWKTTYKGFELMKGPKRFVLGGSGHIAGIINPPTQQKYGYRTNNSMDLSAEQWFEKSKEHSGSWWPEWLNWLKLHSGRLINAPDINHLPFAPIMDAPGSYVLKKEGHHHHHH”, the “soluble on expression in E. coli” value is given as “soluble”.
In the case of “MIRGNAGIMTNYRLSNLFSLQAELNFTTHGKNYCIDGLPHRNRYGYEVTDQTLINIRLHYLELPLLAKFTLFSSQKVTFDMAAGPFIGYKLAARQKTEGGDYQNTTSDYTRLNAGYQISFGFSVMKKRLFFEMRGSRGFVPINTADATKITTMQGGVAIGYYFFSGKKK”, the “soluble on expression in E. coli” value is listed as “not soluble”.
The same measure for “SLTLPQTERQYLSGHGCDDMVEWDFFCTDGRNSGKWTKIGVPSCWELQGFGTYQYGITFYGKAFPEGIADEKGMYKYEFEVPEKFRGQQVNLVFEASMTDTEVKVNGRKVGSKHQGAFYRFSYNVTDFLKYGKKNLLEVTVSKESENASVNLAERRADYWNFGGIFRPVFLEVKPAINLRHIAIDAQMDGSFRANCYTNLSNDGMSIRAQILDNKGKKLTETTVPVKAGGDWTSLQLKVSDPALWTAETPNLYKAQFSLLDKDGKVLHNETETFGFRTIEVRESDGLYVNGVRIMVRGVNRHSFRPESGRTLSKAKNIEDVLLMKDMNMNSVRLSHYPADPEFLEACDSLGLYVMDELGGWHGKYDTPTGVRLIKGMIERDVNHPSIIWWSNGNEKGWNTELDGEFHKYDPQKRPVIHPQGNFSGFETMHYRSYGESQNYMRLPEIFMPTEFLHGLYDGGHGAGLYDYWEMMRKHPRCIGGFLWVLADEGVKRVDMDGFIDNQGNFGADGIVGPHHEKEGSFYTIKQLWSPVQIMNTSVDKQFDGKFSVENRYDYLNLNTCRFLWKQVKFPTATDASNTTAQVLKQGEVQGSDVAAHSAGVLDIKTTILPDADALFLTAIDRYGHELWRWTFPVNKLNQANEVLSPLSNEG”: “soluble”; for “MGSDKIHHHHHHCNFDGRPCCWANVPPPDDQLDWQIASGVPVQLQNRGVPQPEGSYLIAYAKSAAPSDEAQFASCSIGCASSDIVVRAKHWQSESVLLQVCLRESFPSNAERNPLINCQEFPYVDGMGTTEVILPKTSLVDIVFVASNFIGDQGDVAILDDIEVSYDRNGSECQN”: “not soluble”.
To “MGSDKIHHHHHHMSEIASTKARKRCAVYCRVSSDERLDQEFNSIDAQKEAGHAYVASQRSEGWISVADDYDDPGFSGGNTDRPGLKRLMADIERGQIDIVVVYKIDRLTRSLADFSKMVEVFERHEVSFVSVTQQFNTTTSMGRLMLNVLLSFAQFEREVTGERIRDKIAAAKRKGMWMGGVPPLGYDVDNRLLVINETEAAVVRRIFEEMLTIGSPTQIAVNLTADGITNKAWTTQEGQTRNGTRIDKKYLHNLLRNRIYLGELSHKGNWYPGAHLPIIDRELWDKVHAVLARDGHARSVETKIRSRTDALLRGLLYAPSGERMYPTYSRKNGRKYHYYVSKSESRFGAPGKSY” belongs “not soluble”; to “MGGIARLYGDSALAHFSQAHVCVVGVGGVGSWAVEALARTGIGRLTLIDLDNVAESNVNRQLHALTGDFGKAKVTALRERITQINPQCEVFEIEDFVTEDNLPEYFGKGFDFVIDAIDQVRVKAAMAAYFVERKQPFVLSGGAGGQKNPALIQTADLSRVTHDPLLANLRYTLRKRYGFSRDTKANMRVPCVYSTENIVPPQSREACSADAAPQGLSCAGYGASMLVTASFGLYCAQAAVEHIADKKLEHHHHHH”, “not soluble”.
The same measure for “VDLGSKSSNSTCRLNVTELASIHPGETWTLHGMCISICYYENVTEDEIIGVAFTWQHNESVVDLWLYQNDTVIRNFSDITTNILQDGLKMRTVPVTKLYTSRMVTNLTVGRYDCLRCENGTTKIIERLYVRLGSLYPRPPGSGLAKHPSVSADEELSA”: “soluble”; for “MGSDKIHHHHHHMFREDRKGLIVVEVENQDLIKTIQVKFPRLSKGQKLIAEYILKHYDKAAFLTAAKLGSSVGVSESTVVRFANELGFSGYPKLQKALQELIKNKLTTVQRIELSNDFIDQESTLKSVLKSDMENIRYTLEKINHKTFDDVVDSIFSAKRIYILGLRSSTPIAEFLGFYLNLILDNAKIISYGVSDIFEQMMNVAKGDLVIGIGFPRYAARTIEALDYAQNNEATVVAITDSLLSPLAARANHTLIAQSNMASFVDSLVAPLSVVNALIIAVGLREKDKISSTFSKLEHIWQEYEVYSYKERRRD”: “not soluble”.
As to “MANPELLEEQREETRLIIEELLEDGSDPDALYTIEHHLSADDFETLEKAAVEAFKLGYEVTEPEELEVEEGDTVICCDILSECALNAELIDAQVEQLMNLAEKYDVEYDGWGTYFEDPNGEEGDDDDYVDEDDDGVRH”, the “soluble on expression in E. coli” value is given as “not soluble”.
To “MGSDKIHHHHHHMKQTDVVVIGSGVGGLSCAALLARYGFDVTVCESHSIPGGAAHGFERQGFKFDSGPSLYSGLSYSPSVNPLRQVLDAVGVDLPCVTYDTWGCCLPEGDFDAAVGAEQFCEVLGRLRGEAAVAEWRRLQQVMTPLAQAAIALPPAALRWDIGAALTIGRFAPTLAKQSANFFKLTGPFSRIMDGVVHDPFISNWLNLLCFLLSGLPASGTNAAEVAFMFADWYRPGVALDYPIGGSGALVNALVEGFKKHGGELLLHTHVEQVLVEGNKAAGVRLGDGQEIRARRAVVSNASVWDTLKLLPEGAVSQKFRSQRQATPECDSFMHLHLGINAQGLPPDLACHYIVVNDWELEITAPQNVILVSIPSILDPSLAPQGKHVIHVYTPGNEPYTLWQGMDRRSQEYEQQKRSRAEVMWQAVERIIPDIRSRCEIQLVGTPLTHERFLRRYRGSYGPAISAASGLFPGHGTPLPGLMCCGDSTFPGIGLPAVAASGMIVANTLAPVSQHLAMLDRVGL” belongs “not soluble”; to “MAHTGENVLKGLPLKAIALAIALSNPVSAQTLEQAVSITLASNPELKSAFNQFKSREYDAEASSGAYLPKIDLDAGIGYEAINPAESSGNRNTDLTRKDATLTLTQLIWDGSATLNDMDRTAAEAEADRYQLLADASNMALEVAKIYLDATKASEILTLSENNLAIHKDIYRDIKKRADSGIGSTADVTQVEARLAKAHSNLVAAQNNLFDIYTQFRRLVGQEPVSLEFPRADQNAIPPTLENALNMAQENHPVIKVAQADVDAARFQYKQSKAPNYPTLSFEAAQSWRNDAGGIEGSSDELSAMLRLRYNLYNGGSDSDRTESAAYQLNRSKDLREKTFRTVEEGLRLSWSALDLTLQQKQFLADHVDSASKTVVSYRKQYQIGQRTLLDLLNTENELFEARKDYLDARYAEQYAKYRVMNASGNLLDALRVDIPQEWTAKVEY”, “not soluble”; to “MYSRADRLLRQFSLKLNTDSIVFDENRLCSFIIDNRYRILLTSTNSEYIMIYGFCGKPPDNNNLAFEFLNANLWFAENNGPHLCYDNNSQSLLLALNFSLNESSVEKLECEIEVVIRSMENLYHILQDKGITLDTDYTHHHHHH”, “soluble”.
To “MSLEAIHRSTRIEFSKSSLAYNVQYTKQVSGAKTLWLAVKSNAYGHGLLQVSKIARECGVDGLAVSVLDEGIAIRQAGIDDFILILGPIDVKYAPIASKYHFLTTVSSLDWLKSADKILGKEKLSVNLAVDTGMNRIGVRSKKDLKDEIEFLQEHSDHFSYDGIFTHFASSDNPDDHYFQRQKNRWYELIDGLIMPRYVHVMNSGAAMYHSKELPGCNSIARVGTVVYGVEPSEGVLGPIDKLKPVFELKSALTFVKKIPAGEGISYGSKFVTSRDTWIGTLPIGYGDGWLAEYQDFQLLIDGQKCRQVGQIAMDQMMVALPHEYPIGTEVTLIGKSGKYENTLYDLHKHSGVPPWKITVAFSDRLKRMVVDEGHHHHHH” belongs “soluble”.
To “MSQRIIQPSASDQQFPGKSDGYEYTVGPKQAITSEASTTYIPSRIYSESLLFKRQEASLSAMAFLFQEMISQLHRTCKTAGDFETKLSDYGHNIGIRLLELLNFRASVSPSSLPRASAFLSQNESSSKLSNASNSPGMLANSSTATSASANERLQEKQTESLSNYITKMRRRDLKILDILQFIHGTLWSYLFNHVSDDLVKSSERDNEYMIVDNFPTLTQFIPGENVSCEYFVCGIIKGFLFNAGFPCGVTAHRMPQGGHSQRTVYLIQFDRQVLDREGLRFG” belongs “soluble”.

The record behind these values is the DeepSol protein solubility set.
